molecular target: acetylcholine receptor (Homo sapiens, UniProt P02708); assay: SPR binding affinity (RU) of optimized 5mer/6mer/7mer peptides, Examples 6-7; settings: 6mer-1 Top sequence; SPR; peptides tested at 10 μM
Outline: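 Single-concentration screen: 10 μM peptide, SPR detection, binding expressed as RU.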

Sequence of acetylcholine receptor (P02708 21-457): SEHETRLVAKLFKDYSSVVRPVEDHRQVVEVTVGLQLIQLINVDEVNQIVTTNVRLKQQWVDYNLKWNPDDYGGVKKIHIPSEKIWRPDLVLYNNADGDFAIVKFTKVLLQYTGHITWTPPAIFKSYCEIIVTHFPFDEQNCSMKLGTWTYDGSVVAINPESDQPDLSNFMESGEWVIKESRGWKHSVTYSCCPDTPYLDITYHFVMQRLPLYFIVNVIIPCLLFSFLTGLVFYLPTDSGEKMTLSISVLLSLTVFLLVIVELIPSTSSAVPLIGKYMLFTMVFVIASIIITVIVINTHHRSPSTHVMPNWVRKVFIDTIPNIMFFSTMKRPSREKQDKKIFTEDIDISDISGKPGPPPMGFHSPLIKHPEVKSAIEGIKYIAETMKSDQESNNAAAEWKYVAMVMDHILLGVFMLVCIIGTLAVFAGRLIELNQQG

Substance	Binding affinity [Ru]
6mer-1-263 (RKSYTK)	146
6mer-1-301 (RRSILR)	154
6mer-1-232 (RRRICK)	146
6mer-1-289 (RKRYYR)	153
6mer-1-282 (RRRRYR)	121

same assay, conditions: 6mer-2 Top sequence; SPR; peptides tested at 10 μM

Substance	Binding affinity [Ru]
6mer-2-164 (KRQRRK)	135
6mer-2-42 (KLLSKR)	126
6mer-2-57 (KQRCRR)	139
6mer-2-22 (RQIRKK)	124
6mer-2-67 (KLFCKK)	124
6mer-2-99 (RQRSRR)	151
6mer-2-11 (RQYQRR)	121
6mer-2-132 (KLYCKK)	139
6mer-2-131 (KQQTKR)	148
6mer-2-8 (KSLQKK)	135
6mer-2-180 (RLRLKR)	142
6mer-2-176 (RWIYRR)	144
6mer-2-157 (RSYRKK)	153
6mer-2-53 (KSLSRR)	125

same assay, conditions: SPR, Resonance Units; 5mer Bottom sequence (bottom combinations); peptides tested at 10 μM

Substance	Binding affinity [Ru]
5mer-958 (RKWKR)	11
5mer-658 (KKWGR)	31
5mer-744 (KTEAK)	32
5mer-787 (KDNIR)	17
5mer-939 (KMHAR)	24
5mer-923 (KCWMK)	19
5mer-716 (KINVR)	25
5mer-794 (KEAPK)	20
5mer-785 (KPTIR)	31
5mer-711 (KECIK)	32
5mer-724 (KTTAK)	14
5mer-705 (RHAKK)	15

same assay, conditions: SPR, Resonance Units; peptides tested at 10 μM; 6mer-1 Bottom sequence

Substance	Binding affinity [Ru]
6mer-1-1131 (RKDNIK)	42
6mer-1-1158 (RKPMMK)	33
6mer-1-1021 (KKHDIK)	41
6mer-1-1052 (KRHWIR)	33
6mer-1-1130 (RKATFR)	31
6mer-1-1015 (KREEWR)	26
6mer-1-1118 (KKDTIK)	33
6mer-1-1151 (KKKEAK)	34
6mer-1-1079 (RKHPVK)	25

same assay, conditions: SPR, Resonance Units; peptides tested at 10 μM; 6mer-1 Bottom sequence (Table 11)

Substance	Binding affinity [Ru]
6mer-1-612 (KRIMER)	17
6mer-1-716 (RRMPFK)	11
6mer-1-656 (RRPTHK)	28
6mer-1-770 (RKTNAR)	29
6mer-1-765 (KRASPK)	25
6mer-1-773 (KRTEIR)	29
6mer-1-675 (KKIWKR)	21

same assay, conditions: SPR, Resonance Units; peptides tested at 10 μM; 6mer-2 Bottom sequence

Substance	Binding affinity [Ru]
6mer-2-748 (RFDKKR)	28
6mer-2-825 (KIHARK)	11
6mer-2-788 (KKEKKK)	30
6mer-2-635 (KECVRR)	11
6mer-2-871 (REMPKR)	31
6mer-2-940 (RNENKK)	41
6mer-2-633 (KYAVKR)	17
6mer-2-769 (RCPFRK)	13
6mer-2-608 (RCNHKK)	32
6mer-2-841 (KPNHRK)	33
6mer-2-821 (RPTMKR)	33
6mer-2-858 (KEEHRR)	30
6mer-2-944 (KPEDKK)	35
6mer-2-658 (RYWVKK)	23
6mer-2-766 (RPTFRK)	23
6mer-2-662 (KAHPKK)	11

same assay, conditions: SPR, Resonance Units; peptides tested at 10 μM; 6mer-2 Top sequence

Substance	Binding affinity [Ru]
6mer-2-513 (RRLTRK)	121
6mer-2-468 (RSFSKR)	133
6mer-2-527 (RGQTRR)	145
6mer-2-532 (KSITKR)	147
6mer-2-493 (KGVRRK)	123
6mer-2-449 (RGRCRR)	154
6mer-2-474 (RWQQRR)	128
6mer-2-544 (KVIQKR)	147
6mer-2-589 (RWQQRK)	153
6mer-2-447 (RVYTKK)	139
6mer-2-404 (RVLSKR)	121
6mer-2-548 (RLQCRR)	142

same assay, conditions: SPR, Resonance Units; peptides tested at 10 μM; 6mer-2 Top sequence (Table 12)

Substance	Binding affinity [Ru]
6mer-2-364 (KVFTKK)	154
6mer-2-388 (KRFQKK)	139
6mer-2-236 (KWQQKK)	131
6mer-2-327 (KGLRKR)	153
6mer-2-392 (RQILKR)	149
6mer-2-393 (RGLQRK)	145
6mer-2-276 (RLVCRK)	153
6mer-2-360 (KGVRRR)	141
6mer-2-375 (RVVQKK)	131
6mer-2-227 (KLQRRK)	147

same assay, conditions: SPR, peptides at 10 μM; 6mer-2 Bottom sequence

Substance	Binding affinity [Ru]
6mer-2-1042 (KKMFRK)	36
6mer-2-1068 (RIHVKK)	26
6mer-2-1108 (KKKVRR)	36
6mer-2-1194 (KYCDRK)	35
6mer-2-1192 (KHKNKR)	40
6mer-2-1168 (KMKPKK)	41
6mer-2-1004 (RDTHKR)	38
6mer-2-1083 (KTKGKR)	39
6mer-2-1165 (RIKAKK)	30

same assay, conditions: SPR, peptides tested at 10 μM; 5mer Top sequence

Substance	Binding affinity [Ru]
5mer-434 (RVLQK)	74
5mer-113 (KRLRK)	79
5mer-190 (RWRSR)	84
5mer-146 (RWFTK)	52
5mer-323 (KWYYR)	77
5mer-27 (KGYLR)	67
5mer-346 (KGISK)	57
5mer-121 (RQVTR)	73
5mer-96 (RVLYR)	55
5mer-21 (KWFTR)	63
5mer-139 (RLQYK)	73
5mer-107 (RWVSR)	56
5mer-464 (RGVTR)	57
5mer-316 (KQYLR)	73
5mer-312 (KRYCR)	81
5mer-508 (KGLQK)	67
5mer-306 (KSYYR)	74
5mer-90 (RWYTK)	86
5mer-492 (RVVLR)	80
5mer-17 (KRIYK)	70
5mer-205 (RWYYR)	75

same assay, conditions: SPR, peptides tested at 10 μM; 5mer Top sequence (top combinations)

Substance	Binding affinity [Ru]
5mer-233 (RVYYK)	84
5mer-212 (KQQYK)	64
5mer-592 (RWLCR)	56
5mer-282 (RVLTR)	77
5mer-276 (RSLRR)	70
5mer-568 (KQITR)	64
5mer-294 (KQYYK)	50
5mer-545 (KGQYR)	80

same assay, conditions: SPR, peptides tested at 10 μM; 6mer-1 Bottom sequence (Table 11)

Substance	Binding affinity [Ru]
6mer-1-907 (RKPAWR)	42
6mer-1-981 (RKDDKK)	27
6mer-1-836 (RRCMIK)	22

same assay, conditions: SPR, peptides tested at 10 μM; 6mer-1 Top sequence

Substance	Binding affinity [Ru]
6mer-1-519 (KRRQCK)	147
6mer-1-549 (KKSYQR)	142
6mer-1-550 (RRLICR)	148
6mer-1-465 (RKQVYK)	154
6mer-1-493 (KRGYLR)	131
6mer-1-534 (KKRLCR)	126
6mer-1-428 (KRVVLR)	139
6mer-1-439 (KRRQTK)	121
6mer-1-450 (RKVVYK)	151
6mer-1-413 (RKQFCR)	148

same assay, conditions: SPR, peptides tested at 10 μM; 6mer-1 Top sequence (top combinations)

Substance	Binding affinity [Ru]
6mer-1-137 (RRLFRR)	121
6mer-1-199 (KKQVQK)	151
6mer-1-27 (KRSFTK)	142
6mer-1-10 (KRWRLK)	139
6mer-1-61 (KRSYCK)	121
6mer-1-171 (RKQFQK)	123
6mer-1-151 (KRGVRR)	145

same assay, conditions: SPR; XRRGVRR-7mer and RRGVRRX-7mer

Substance	Binding affinity, values relative to the RRGVRR sequence
3651 (SRRGVRR) [compound 3651]	117

same assay, conditions: SPR; XRRQRR-6mer and RRQRRX-6mer

Substance	Binding affinity, relative value to the RRQRR sequence
3603 (VRRQRR) [compound 3603]	135
3611 (SRRQRR) [compound 3611]	121

same assay, conditions: SPR; peptides tested at 10 μM; 5mer Bottom sequence

Substance	Binding affinity [Ru]
5mer-849 (KTWMK)	15
5mer-1124 (KKPVK)	30
5mer-1192 (RYAKK)	28
5mer-1169 (KDTPK)	29
5mer-900 (RHSVK)	29
